PMC5816147

Biological target: GLP1 receptor (human) (UniProt P43220)
Sequence (P43220 24-463): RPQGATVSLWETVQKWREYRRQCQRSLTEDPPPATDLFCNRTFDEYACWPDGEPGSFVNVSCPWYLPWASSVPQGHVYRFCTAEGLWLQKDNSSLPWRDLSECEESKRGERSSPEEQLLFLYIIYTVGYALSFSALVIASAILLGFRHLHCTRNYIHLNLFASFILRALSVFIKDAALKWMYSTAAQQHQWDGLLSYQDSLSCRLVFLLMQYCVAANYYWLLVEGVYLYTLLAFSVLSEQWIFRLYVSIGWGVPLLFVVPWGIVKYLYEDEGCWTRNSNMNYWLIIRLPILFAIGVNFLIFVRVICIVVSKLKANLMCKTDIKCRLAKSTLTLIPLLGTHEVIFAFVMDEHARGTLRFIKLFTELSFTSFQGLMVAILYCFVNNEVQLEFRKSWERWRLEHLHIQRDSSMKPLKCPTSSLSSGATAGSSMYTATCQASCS

(D)-GLP1 peptide (designed binder)
EC50 of CRE-luciferase expression in HEK293 cells stably expressing GLP1R: 2200 nM
